Measured values taken from US20040038369A1, “Airway-specific trypsin-like enzymes and method of using the same” (priority 2000, published 2004).

Experiment: Enzymatic activity of mammalian ASTs transiently expressed in 293 EBNA cells
Type: biochemical
Settings: for Cell lysate Fluorescence intensity ratio (Human:100): 293 EBNA cell lysate, three days after transfection
Method: A forward primer and a reverse primer were prepared on gene sequences encoding the N-terminal and C-terminal of each mammalian AST, and a cDNA encoding the full-length AST was prepared by a PCR amplification using the forward primer, the reverse primer, Pyrobest DNA polymerase (produced by Takara Shuzo Co.), and an airway cDNA as a template. On the other hand, a product obtained by cleaving pcDNA3 (produced by Invitrogen Corp.) with restriction enzymes NruI and KpnI, and the promoter domain of Elongation Factor-1a (EF-1 a) from human genome were amplified by a PCR using a forward primer: […] and a reverse primer: […]. The amplified fragment was cleaved with restriction enzymes NruI and KpnI, and then inserted into the above-described plasmid vector to construct the pEF9 expression vector having the promoter of the human EF-1α. The PCR-amplified ATS fragment was inserted into a multi-cloning site in the downstream of the human EF-1α promoter of the above-described pEF9 expression vector to prepare each animal AST expression plasmid. The base sequences were identified with an automatic sequencer.
Human fetal kidney-originated 293 EBNA cells (Invitrogen Corp.) were cultured in a 10 cm schale, and the about 5.8×10^6 cells were transfected with 28 μg of each expression plasmid prepared in (1) in 56 μL of LipofectAMINE 2000 (produced by GibcoBRL Corp.) according to an appended manual. Three days later, the cells were lysed and recovered in 5 mL of M-PER (produced by PIERCE Corp.) and then mixed with 5 mL of a buffer solution (50 mM Tris-HCl, 0.01% BSA, pH=8.6) for AST activity assay to give the cell lysate. The cell lysate was further diluted with the buffer solution for the AST activity assay ten times, and then supplied for the activity assay. 40 μL of the above-described assay sample was mixed with 20 μL of a synthetic substrate solution (a solution obtained by diluting a 10 mM Boc-Phe-Ser-Arg-MCA DMSO (dimethyl sulfoxide) solution with the buffer solution for the AST activity assay 50 times), and the increase of the fluorescence intensity per minute was assayed (fluorescence wavelength: 460 nm, excitation wavelength: 380 nm) to determine the enzymatic activity.

Row | Molecule | Cell lysate Fluorescence intensity ratio (Human:100) | Sup Fluorescence intensity ratio (Human:100) (293 EBNA, Sup)
1 | Monkey: monkey AST, SEQ ID NO: 28 and 29, expressed in 293 EBNA cells (protein, listed as Macaca fascicularis) MYRPARVPSTSRFLNPYVVCFIVVAGVVILAVTIALLVYFLAFDQKSYFYRSSFQLLNVEYNSQLNSPATQEYRTLSGRIESLITRTFKESNLRNQFMRAHVVKLSQDGSGVRADVVMKFRFTRNNNGASMKSRIESVLQQMLNNSGNLEINSSTEITSLTDQAAANWLINECGAGPDLITLSEQRIIGGTEAEEGSWPWQVSLRVNNAHHCGGSLISNTWILTAAHCFRSNSNPREWIATFGISTTNPRLRMRVRSILIHNNYISATHENDIALVRLENSVTFTRDIHSVCLPAATQNIPLGSTAYVTGWGAQEYAGSTVSELRQAQVRIISNDVCNAPYSYNGGILPGMLCAGVPQGGVDACQGDSGGPLVQEDSRRLWFLVGIVSWGDQCGLPDRPGVYTRVTTYRDWIRQRTGI | 250 | 150
2 | Pig: pig AST, SEQ ID NO: 26 and 27 (protein, listed as Sus scrofa) MYRPATVRSASRSLNPYTVCFIVVAVVVILAVTIALLVHFLAFDQKAYFYHSRFQILNVEYSDELNSPATQKYRSLSGRIESMITRTFKESNLRNQFVRAHVVKLRQSGSGVIADIVMKFKFTRYNNGASMKSRIESVLRQMLNNTGNLVMNPSTELTPITDQDTVNIFTQGCGARPDLITLSEERIIGGTKAEEGDWPWQVSLQRNNLHHCGGVLISNRWILTAAHCFRSYSDPRQWTVTFGISTIFPKDRIGVRNILIHNNYNPETHENDIALVQLNREVAFTKNIHSVCLPEATQTIPPGSTAYVTGWGSQRYSGNTVPDLEQVRVNIISNDVCNSPAGYNGDVLPGMLCAGLPEGGADACQGDSGGPLQQEDSRRLWFLVGIVSWGYQCGLPDKPGVYTRVTAYRDWIAQQTGI | 92 | 
3 | Dog: dog AST, SEQ ID NO: 30 and 31 (protein, listed as Canis familiaris) MYRPARVPSGSRFLNPYVVCFVVVAGVVILAVTIALLIHFLAFDQKSYFYHSSFQILNVQYSNQLNSPGTQEYRTLSGRIESLITKTFRESNLRNQFIRAHVVKLRQEGNGVIADVVMKFKFTRNNNGALMKSRIKSVLHQMLNNSGNLEISPSTEITSITDQDTVNIFTEGCGARPDLITLSEERILGGNKAEEGDWPWQVSLQKNNVHHCGGVLISSMWILSAAHCFRSQSNPRQWTAIFGASIAFPKQKRRVRTILIHNNYNPATHENDIAAIQLEGGINFTKNIHRVCLPEATQNIPPGSSAYVTGWGSQEYGGNTVSDLQQARVRIISNDVCNAPTSYNGAVRPGMLCAGLPQGGVDACRGDSGGPLVQEDSRRLWFLVGIVSWGDRCGLPDKPGVYTRVTAYRDWITEKTGV | 40 | 
4 | Cattle: cattle AST, SEQ ID NO: 32 and 33 (protein, listed as Bos taurus) MYRPARVTSASRSLNPYLVFFVVVAVVVILAVIIGLLVYFLAFDQKSYFYQSSIQILGKQYSDELSSPATEKYRTLSGRIESMITKTFKESDLKNEFIKAHVVKLRQSGNNVIADIIMKFKFTRRINEASMKSRIESILRQMPNNSEDLNMNPTQVISITGQDTIQLFTRECGVRSDLITLSEERIIGGSKAEKGDWPWQVSLQWSSSHRCGGALISNRWILSAAHCFRSHSDPRQWIATFGTSTISPQLRVGVRNILIHDNYKPETHENDIALVQLDREVTFNRYIHTVCLPEANQAISAGSTAYVTGWGSQSYSGSTVSDLNQGRVNIISNTVCNTPAGYNGAVLSGMLCAGLPEGGVDACQGDSGGPLVQEDSRQHWFIVGIVSWGYQCGLPDKPGVYTRVTAYRDWITQQTGI | 16 | 
5 | Rabbit: rabbit AST, SEQ ID NO: 34 and 35 (protein, listed as Oryctolagus cuniculus) MYRPARGSSTSRFLNPYVICFIVVAVVVILAVIVALLIHFLAFDKKSCFFHSSFQIRNVQYSDQLNSPATQEYRLLSERIESMISQTLQGSNLRNQFIRAHVVKLRQDSNSVIADVVMKFRVSRNNNGDAMKRRVQDVLQQMLNNSGSLEINPSTTVTEITGQDTETIFTQQCGARPDLITLSEERIIGGTQAEEGDWPWQVSLQPNNAHHCGGILISNTWILTAAHCFRSYSDPRQWTATFGISTAVSRQRMRIRTILVHNNYRSATHENDIAAVQLEGAITFTRNIHSVCLPEATQNITPGSSAYVTGWGSLEYGGNTVTYLQQGRVRIISNEVCNAPASYNGAVLPTMVCAGLSQGGVDACQGDSGGPLVQEDSRRLWFVVGIVSWGYQCGLPDKPGVYTRVTAYRDWIREQTGI | 30 | 
